Test results reported in patent US20260117244A1, “INHIBITORY RNA FOR THE CONTROL OF PHYTOPATHOGENS” (priority 2021, published 2026).

Tested on: G. orontii MGH1
Assay: Spray-induced gene silencing (SIGS), G. orontii spore production on A. thaliana (whole plant and detached leaf assays)
Format: in vivo, Golovinomyces orontii
Conditions: topical dsRNA against G. orontii target (Gor Seq ID), n>=3

B1: 146 (nucleic acid, listed as Golovinomyces orontii)
chain: ATGGCTCAATCCCCGGACAGTAAGGTAGAGAAAGTCTTTACGACAAATCACCTCGGAATTGGCAGGCTCCAAGGAAAGAACGCAATTGTGACCGGAGCAGCAGGTGGTATCGGCTTGGAAACATGCATTTTATTCGCCAGAGAAGGTGCCAATGTTCTTTTGGCCGACATTTCAGCTCCAGCCCTAGAAAAAGCATATGCCAAGATTGCTCAACTTGTACCTTCGGCTCGCAAGGTCGAGAAAATGCTATGTGATGTTTCCAAGGAGGGAGACGTCAAAGCTATGGTTGACCATGTTGATTCATGGGGTGGTGTTGACATTATTTTTAACAATGCGGGCATAATGCATGCTGATGATGCTGATGCAGTTGACACCCCTGAGAAGATTTGGGATCTCACTCAGGCTATCAACGTGAAAGGTGTCTGGTTCGGCTGCAAACATGCAGTCATCTCATTTCGAAAGCATAAAAAGTCAAAGGGCTGTGTCATCAATACAGCCTCTGTTGTTGCTTTGGTGGGATCTGCAACTCCACAACTTGCCTACACCGCGAGTAAAGGAGCTGTTCTAGCTCTAACGCGGGAGCTTGCAATTGTACATGCACGCGAGGCGCCGTTGAACACTCCCTTACTTCAGGATTGGCTTGGAGATGACCAGCCTAAGCGACTTCGTCGGGAAATTCATTTTCCATGTGGCCGCTTCGGCGAAGCTGTTGAACAAGCTCGTGCTGTTCTTTTCTTAGCTTCCGATGACGCCAATTTCATTAATGGGCAGGAATTTGTTGTCGATGGCGGAATGACTAAAGCATATGTGACTCCAGAAGGTCCCCCGACCGAGGCGCCTATAAATAACTCATTACTCTCTGAGCCAATCGATAATTTTAAGACCACTAACTCATCAGACATGGGAGTTTGA
modifications: listed as DNA
  G. orontii Spore Production on Arabidopsis, Detached Leaf Assay, % reduction: 63%
  G. orontii Spore Production on Arabidopsis, Whole Plant Assay, % reduction: 42%

B2: 167 (nucleic acid, listed as Golovinomyces orontii)
chain: ATGCTTCTAACTAAGATTCACACCGCACCAGAACTAGACTCATTTACAGCACTCGAAGATCATCAATCAAAGACTCCCGACAAATTTTATGAAACGAAACCTGTCCTATACTTTCATGACAATAATGCCAGAGCTCTTATCGTCAAAAGTCAGCTTGTCAAATTACCCATCTGTGAATTAAATTCTTCGGAAAATGAACCTGAATCAAGCCCAAAAATAGCTAATGTCGAAGTGTTTGTCAATTCCCAGAAATTGATTATATTTAACCCTGTCGAATGCATTGGCTACGCTATTCCCTACTCAGCGATTACTCTTCATGCTATCCAGAGATTAAAAGATCCAATAGATTCATATCTGGAAATACAAGGACTCTACATGCAAATAAATATATCAGATTGCAGTGGTGACGAACAACAAGATGAAGATTCGACCTATGTAGATCTAACTCTCATACCATCACTCAACTCTGATACCATAACTAAACCAAGAATCCAAACACTCTACGAGGCGGTCTCTGCCTGTTCCGACTTAAATCCTGACTTGAATCCGGAAGACGATGGGATAACTGAAGATGTAGGTGAAGAATCTAGGATAATATTTGAAGGCACTGATGGTCTTCCTGGTGTTTTCAACGGCGGATCAGATGGCAACCTCCCACCGCCGTTTCCTGGTAGTGGGGGATGGATAACAGCTGAGAATATGTCTCAATTTTTAGACGAAGAAGGTAATTGGATTGGGAAAAGCGATAACGGTGAGGATTCAATGGTTATCGGATAA
modifications: listed as DNA
  G. orontii Spore Production on Arabidopsis, Detached Leaf Assay, % reduction: 39%

B3: 140 (nucleic acid, listed as Golovinomyces orontii)
chain: ATGCAATTCACTCAACTTCTCATCTTAGCCTTCGTCGCTTGCGTGGCTGCTACACCATCAGGATTGAACTTTTACGCGCGAAGAACTGACGGTGGAGACGACGAATCACCACAGACATGTACTCAGGCCCTACAAGCTATTCCCAAGTGCGCTCTGAGTTGCATCACACAACCCCCAATCGACGCCGGTTGCAAATCAGCTGCTGACTTCGCTTGCACCTGTGAGAAAAAGACCCAAAAACAAATTACAAAGGCAGAAACTCCTTGTGTTCTCAAGGCTTGCGGACTAAAAGAGGCACTTGCTGCTTCTAAGGCTGGAAAAGCTGTATGTGAGGCTTGCAACACATCCCCAAGCGACCCATCCGACGGTCACGGTGACGACGGAGATGACGATTCATACGATAGCTCTGATTCTGAATAA
modifications: listed as DNA
  G. orontii Spore Production on Arabidopsis, Detached Leaf Assay, % reduction: 37%
  G. orontii Spore Production on Arabidopsis, Whole Plant Assay, % reduction: 60%

B4: 124 (nucleic acid, listed as Golovinomyces orontii)
chain: ATGTTCCTCAGAGCTTCGTTGACCTTCTGGGCTCTCTTGGCCACAGAGATAAGTCTGTCCACGACAGCCTCCGTTAGACGACTGGAGAATCGCGAGGTTGTTGACGATATTAATGACAATGGAATCATGATTGAGTGGGCAAGATGCAAAGGTAGACACTACGATAAAGATGAAATATATGAAACGCTCAAACAAGCTTGTGAGACGAAAAATTCATCTACCATTTTTGAAAAAGCCGTCAATCTTCGTCCACATATCCCATCGTCATCAGAGAAGTATCATCATGAGATCAACCCTCCCTACTACGCGTACTCTCTGCATGATACCGTATTCAAAGATAAACTACATCCAATCGATGTTATCGTGATGAACGATGAATGTAAGCTGGCTGGTGTACTCATGGAGACCACCAAGATCAGCTGCAACGACGACACGTGCGGCTCCGAACCCCGGTACAAAGATTGTGAGATCCGATTAACGAAAACCGCTCCGACGTCGACAGAGACGACTCAGGTTGCGGAATTGTCTTGA
modifications: listed as DNA
  G. orontii Spore Production on Arabidopsis, Whole Plant Assay, % reduction: 33%

B5: 87 (nucleic acid, listed as Golovinomyces orontii)
chain: ATGCCTCTACGAAGAATACTAAAGAAGTCAAAATACGCCAAAAAGAGTCCAGAAGAAGAGACTGTCATAACACCCATCTTATTTATGCGTAGCGACACAAAAACAGAGGAGATTATTTATCCACCTAGTTATCCTGATCATGAAGAATCCTTACGCAGTAAAAAGGGGCGAAACAAGAAGGAAATACCTAGGACCCCTTCGGAATCTCGTAAATCATCTCTTAGACTCAAGCCAAACTTTCTGAAAAACCAGAAATCCGAAAAGGTGCCAGAAAATCTGCCAGATATAGAGATCATTGCTGATCAGGTCGAGAGGAGAATCAGGGCACAATGGGAAAAACGTGCGACAATTCTAGCCAAAAGAAATGAGGAAACAACAGCTAAGTATCTATCAATCACTGACGATAAACATGCAAAGGAGGTGAGAATGGCGAGAGAGCTGGACGAGGCAAATTCGGCCAACGATAACATTATAGAAGCAATTAGACTACATGAAGCGGGGAGCCGGCTGGCGGAGTTCCAAAATGAGAATAATACCCTCAGTCAAGTATTGTACGGTCTTTCTTTAAGGTACGCATGGCTGGGGATGTACTCCAGATCCGGAAAAGGCACTCAAATACCTTCAGCTGCAGCATCGTGTGCAGCCTCAATCGAGGATTTAGCACTTAGGGCGGGGAAGAAAAGTGGAGGAGCAGCGAAAGATGAATTAGTTCTTGCTATTTACGAGCTCGCAAATAGTTTTAGACATGGCTGGGGAATTCCGATCGACCGAGTGGCTGCGAAACAGTACTATGAGACGGCAGCTAATTTGGGTGATACGGACGCTATGAATGAAGTGGCCCGATGTTATGCCGAAGGAATCGGTTGCAAGAAAGACATGTTTGTGGCTGCTAAATACTACAGGATGGCTGAGAGTAAGGGTAACAAAATCATTGGAAACTCCTGGTACGTTGCAATTTTTGCTCTCTAA
modifications: listed as DNA
  G. orontii Spore Production on Arabidopsis, Detached Leaf Assay, % reduction: 42%

B6: 122 (nucleic acid, listed as Golovinomyces orontii)
chain: ATGAAAGCCAAACACCTAATTCTGACCATAGCGCTTGCGGCTACTGCGAGGGCAGAAGATCAATATGATGCTTCTGAACTACCACAGTTGAAACATCAGCAGTTAAGAATACCTTTTCCGACAGCTATTGCTGAATCGAAGTGCAGCTGTGCCACTGAATATATAACATCTACAGGCGAGGGTTTTCTTTATACTGCTGATGTATCATCAATTACCAAAAATTTTGATCCGCAACCGACTCACGAGTATCCTCTAATCGTTGAACCATCCATATCCGTTAATTGTCCGCCCCCGTCCACCATTACTGTAACCGAGACAAAATATATTACTTTGATGCCTGATCTAGCACCATCTGATCCTGCTAGTCCGATCTTAGAACCGCAAAATACCGATGCCGGACCAAACTCTCCATTAAATCCCTCTAGCCCGATATTAGATCACCCAAATACTGATACTGGGCCGCCTTCTCCACCTGCTCCAGTCGTTTCTAACATTGAGATATCTCCGTCAGCCCCAGACCCCAGCCCTGAAGTATCTTCAAAACCACATACTGGCACACTGGGATCTAACAATGGTCTGTGGGCAATCACTTTTTCTCCATTTAATGATGATGGAACGTGCAAAGGTGAGACTGCTGTTTGGGAAGATGTGCGCTTGATTCGTAGCGCTGGCTTCAAGGCAATTCGTGTCTATGGTACTGAATGTTCGGGAATTGAACACGTCAGTTCTGCCGCCAGTTTTCACGGACTAAAACTTATTATCGGTATATTTATCAGCGAATCTGGTTGTTCTGGTGCTGCGGAGCAAGTAACTCATATCACAAAATGGGCCAAATGGGAAATTGTCGAGCTAATTGTGATTGGAAACGAAGCCCTATTTAATGGCCATACTTCTCCAGATGAGCTCGCAAGATTTATTAGCTCAACCAGAAATACACTACGATCCTCTGGTTACAATGGACCTTGCACAACAGCTGAGCCTCTCAATATCTGGCAGCAAAGCTCGGATGTATTGTGTGGTGCAGTTGATATCGTTGGATGTAACATTCATCCATTTTTCAATCCAGAAGTTGACGCTAGTCATGCCGGACCTTTCGTCAAGAGTCAGCTCGAAATTGTTAATAACATTTGTCCAAGCAAATATGGTATCAACCTCGAATGTGGATGGCCTTCGGCTGGCGAGTGCAACGGCAAGGCTTGTCCTGGTGAGTCGGAGCAAAAAATTGCTGTGGAAAGCATTCAGTCATTTGCTGGCAACGTGTCGGTAATGTTTACATACACCAACGATAAATGGAAAGACCCAGGCCCCCTCAAGATTGAGCAGAGTTTCGGATTAATTAAGCTCCTGAATAGCCACTAG
modifications: listed as DNA
  G. orontii Spore Production on Arabidopsis, Whole Plant Assay, % reduction: 33%

B7: 123 (nucleic acid, listed as Golovinomyces orontii)
chain: ATGTTGTGCTTCATTTCCATCTTCACAACAGCTCTCCTAATCTCTCCCTCCCTAGGAGTTAATTCAGCTCAGAACGGCGAAACTCCCGATGACGATTCATTAGGTTCTACGAAACACATGAACTTTGGCTCTGGTCTCTCTGAATTCAATGCTCATGAAGATATGTATGTTCCTGCCATGGATCTGAATGGGTTTAGAATAAAGCGACGACATTTTCAAAATGAAGGCTATTACTGCAGCAAATCGCGCAATCACCTCGAATTTACAAATCAATCTTTCGTGAAGAATGAAGCTAAGAAGGCATGCAAGGGTCTTGAAAGGTCAAAACACGAACACAAACACGAACATGAACATGAGCACGAAGATAAACATGAATATAAAGAATATGAAGAAGAAGAAGAAGAAGAAGAAGAAGAAGAAGAAGAAGAAAATAAAATAAAAAAAGGAAAGAAAGGAAAGAAACATTCCGATTACCCTCATCCATACAATGCAGTCAAATATGTAAAATATTCCCCACCATACTTCGAACACCGAATCCATGATGTGAAGAAAAATAAATCAGGTCTGAGCGTCATCATAGATATCGACTGTCATATTGTTGATGTTGTTGCTCTCAACCAAGATAAACGATACCATCAATGTGCCCGTGCATGA
modifications: listed as DNA
  G. orontii Spore Production on Arabidopsis, Detached Leaf Assay, % reduction: 38%
  G. orontii Spore Production on Arabidopsis, Whole Plant Assay, % reduction: 32%
